Experimental data from the supplement of paper PMC9112550, “Optimization of the antimicrobial peptide Bac7 by deep mutational scanning” (BMC Biology, 2022).

Test system: Escherichia coli TOP10
Assay: shrunken log2 fold change of peptide-encoding DNA abundance (4.5 h post-induction vs induction); higher = less antimicrobial activity (less host growth inhibition)
Details: time post-induction: 4.5 h; library: site-saturation at positions 5, 18, 19, 20
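Note: peptides expressed intracellularly from a pBAD plasmid library in pooled LB shake-flask culture, induced with 0.3% L-arabinose, DNA abundance read by NGS, three biological replicates, DESeq2 with apeglm shrinkage.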

Row | Sequence | shrunken log2 fold change
1 | RRIRMRPPRLPRPRPRPTMFPRP | 0.137
2 | RRIRMRPPRLPRPRPRPTMYPRP | 0.187
3 | RRIRMRPPRLPRPRPRPTNDPRP | 0.231
4 | RRIRMRPPRLPRPRPRPTNIPRP | -0.0556
5 | RRIRMRPPRLPRPRPRPTNLPRP | -0.0631
6 | RRIRMRPPRLPRPRPRPTPQPRP | 1.31
7 | RRIRMRPPRLPRPRPRPTQMPRP | 0.195
8 | RRIRMRPPRLPRPRPRPTRAPRP | 1.42
9 | RRIRMRPPRLPRPRPRPTRCPRP | 0.863
10 | RRIRMRPPRLPRPRPRPTRPPRP | 1.32
11 | RRIRMRPPRLPRPRPRPTSQPRP | 0.393
12 | RRIRMRPPRLPRPRPRPTVQPRP | -0.0862
13 | RRIRMRPPRLPRPRPRPTWCPRP | -0.0681
14 | RRIRMRPPRLPRPRPRPTYWPRP | 0.169
15 | RRIRMRPPRLPRPRPRPVAIPRP | 0.104
16 | RRIRMRPPRLPRPRPRPVCTPRP | 0.479
17 | RRIRMRPPRLPRPRPRPVCVPRP | 0.241
18 | RRIRMRPPRLPRPRPRPVDDPRP | -0.0248
19 | RRIRMRPPRLPRPRPRPVDFPRP | 0.159
20 | RRIRMRPPRLPRPRPRPVDGPRP | 1.08
21 | RRIRMRPPRLPRPRPRPVDLPRP | 0.405
22 | RRIRMRPPRLPRPRPRPVELPRP | -0.281
23 | RRIRMRPPRLPRPRPRPVFQPRP | 0.168
24 | RRIRMRPPRLPRPRPRPVFVPRP | 0.0672
25 | RRIRMRPPRLPRPRPRPVGKPRP | 0.216

Row | Sequence | shrunken log2 fold change
26 | RRIRMRPPRLPRPRPRPVGTPRP | 0.477
27 | RRIRMRPPRLPRPRPRPVGYPRP | 0.515
28 | RRIRMRPPRLPRPRPRPVHNPRP | -0.0275
29 | RRIRMRPPRLPRPRPRPVIPPRP | -0.259
30 | RRIRMRPPRLPRPRPRPVIYPRP | -0.0966
31 | RRIRMRPPRLPRPRPRPVKWPRP | 0.0346
32 | RRIRMRPPRLPRPRPRPVMKPRP | 0.0713
33 | RRIRMRPPRLPRPRPRPVNEPRP | 0.0186
34 | RRIRMRPPRLPRPRPRPVNMPRP | -0.292
35 | RRIRMRPPRLPRPRPRPVNRPRP | 0.105
36 | RRIRMRPPRLPRPRPRPVPHPRP | 0.537
37 | RRIRMRPPRLPRPRPRPVQMPRP | 0.247
38 | RRIRMRPPRLPRPRPRPVRGPRP | 1.18
39 | RRIRMRPPRLPRPRPRPVRNPRP | 0.0163
40 | RRIRMRPPRLPRPRPRPVSRPRP | 0.796
41 | RRIRMRPPRLPRPRPRPVTLPRP | -0.393
42 | RRIRMRPPRLPRPRPRPVVDPRP | 0.0138
43 | RRIRMRPPRLPRPRPRPVVLPRP | 0.272
44 | RRIRMRPPRLPRPRPRPVYPPRP | 0.166
45 | RRIRMRPPRLPRPRPRPWCGPRP | 0.134
46 | RRIRMRPPRLPRPRPRPWCMPRP | -0.0453
47 | RRIRMRPPRLPRPRPRPWCRPRP | 0.0521
48 | RRIRMRPPRLPRPRPRPWCSPRP | -0.075
49 | RRIRMRPPRLPRPRPRPWDDPRP | 0.533
50 | RRIRMRPPRLPRPRPRPWDFPRP | 0.121

Row | Sequence | shrunken log2 fold change
51 | RRIRMRPPRLPRPRPRPWGYPRP | 0.101
52 | RRIRMRPPRLPRPRPRPWLIPRP | 0.0295
53 | RRIRMRPPRLPRPRPRPWLQPRP | -0.000921
54 | RRIRMRPPRLPRPRPRPWLVPRP | 0.0862
55 | RRIRMRPPRLPRPRPRPWLWPRP | 0.0882
56 | RRIRMRPPRLPRPRPRPWMNPRP | -0.00973
57 | RRIRMRPPRLPRPRPRPWNYPRP | -0.203
58 | RRIRMRPPRLPRPRPRPWPSPRP | 0.034
59 | RRIRMRPPRLPRPRPRPWQQPRP | -0.0113
60 | RRIRMRPPRLPRPRPRPWRMPRP | 0.0682
61 | RRIRMRPPRLPRPRPRPWRPPRP | 0.308
62 | RRIRMRPPRLPRPRPRPWTFPRP | 0.055
63 | RRIRMRPPRLPRPRPRPWTPPRP | 0.28
64 | RRIRMRPPRLPRPRPRPWTTPRP | -0.0163
65 | RRIRMRPPRLPRPRPRPWTWPRP | -0.0795
66 | RRIRMRPPRLPRPRPRPWVFPRP | 0.152
67 | RRIRMRPPRLPRPRPRPWYCPRP | -0.336
68 | RRIRMRPPRLPRPRPRPWYGPRP | -0.0162
69 | RRIRMRPPRLPRPRPRPYAGPRP | -0.0412
70 | RRIRMRPPRLPRPRPRPYAMPRP | -0.155
71 | RRIRMRPPRLPRPRPRPYAVPRP | -0.0789
72 | RRIRMRPPRLPRPRPRPYCFPRP | -0.28
73 | RRIRMRPPRLPRPRPRPYCSPRP | -0.122
74 | RRIRMRPPRLPRPRPRPYEAPRP | 0.029
75 | RRIRMRPPRLPRPRPRPYEEPRP | -0.228

Row | Sequence | shrunken log2 fold change
76 | RRIRMRPPRLPRPRPRPYEQPRP | -0.222
77 | RRIRMRPPRLPRPRPRPYESPRP | 0.107
78 | RRIRMRPPRLPRPRPRPYGAPRP | -0.105
79 | RRIRMRPPRLPRPRPRPYGVPRP | -0.147
80 | RRIRMRPPRLPRPRPRPYHIPRP | -0.69
81 | RRIRMRPPRLPRPRPRPYIIPRP | -0.151
82 | RRIRMRPPRLPRPRPRPYKKPRP | -0.161
83 | RRIRMRPPRLPRPRPRPYKWPRP | -0.141
84 | RRIRMRPPRLPRPRPRPYLPPRP | -0.78
85 | RRIRMRPPRLPRPRPRPYLSPRP | -0.0214
86 | RRIRMRPPRLPRPRPRPYQWPRP | -0.055
87 | RRIRMRPPRLPRPRPRPYRIPRP | -0.0176
88 | RRIRMRPPRLPRPRPRPYRYPRP | -0.133
89 | RRIRMRPPRLPRPRPRPYSWPRP | -0.0788
90 | RRIRMRPPRLPRPRPRPYTYPRP | -0.398
91 | RRIRMRPPRLPRPRPRPYWHPRP | -0.305
92 | RRIRMRPPRLPRPRPRPYYAPRP | -0.948
93 | RRIRNRPPRLPRPRPRPAAWPRP | 0.0193
94 | RRIRNRPPRLPRPRPRPACLPRP | 0.146
95 | RRIRNRPPRLPRPRPRPADIPRP | -0.183
96 | RRIRNRPPRLPRPRPRPAFEPRP | 0.0155
97 | RRIRNRPPRLPRPRPRPAFLPRP | -0.0726
98 | RRIRNRPPRLPRPRPRPAHKPRP | 0.00838
99 | RRIRNRPPRLPRPRPRPAHLPRP | 0.256
100 | RRIRNRPPRLPRPRPRPAHVPRP | -0.0508

Row | Sequence | shrunken log2 fold change
101 | RRIRNRPPRLPRPRPRPAIGPRP | 0.0499
102 | RRIRNRPPRLPRPRPRPAKRPRP | 0.27
103 | RRIRNRPPRLPRPRPRPALFPRP | 0.177
104 | RRIRNRPPRLPRPRPRPAMDPRP | 0.166
105 | RRIRNRPPRLPRPRPRPANGPRP | 0.0343
106 | RRIRNRPPRLPRPRPRPANNPRP | -0.0944
107 | RRIRNRPPRLPRPRPRPAPTPRP | 0.809
108 | RRIRNRPPRLPRPRPRPAQPPRP | -0.0398
109 | RRIRNRPPRLPRPRPRPARKPRP | 0.0797
110 | RRIRNRPPRLPRPRPRPARPPRP | 2.86
111 | RRIRNRPPRLPRPRPRPARSPRP | 0.679
112 | RRIRNRPPRLPRPRPRPASFPRP | -0.00784
113 | RRIRNRPPRLPRPRPRPATPPRP | 0.537
114 | RRIRNRPPRLPRPRPRPATWPRP | -0.000853
115 | RRIRNRPPRLPRPRPRPAVCPRP | 0.158
116 | RRIRNRPPRLPRPRPRPAVQPRP | 0.109
117 | RRIRNRPPRLPRPRPRPAWRPRP | 0.526
118 | RRIRNRPPRLPRPRPRPAWYPRP | -0.178
119 | RRIRNRPPRLPRPRPRPCAAPRP | 0.0594
120 | RRIRNRPPRLPRPRPRPCAIPRP | -0.0115
121 | RRIRNRPPRLPRPRPRPCCFPRP | -0.278
122 | RRIRNRPPRLPRPRPRPCDLPRP | -0.0345
123 | RRIRNRPPRLPRPRPRPCEHPRP | -0.162
124 | RRIRNRPPRLPRPRPRPCEYPRP | -0.0196
125 | RRIRNRPPRLPRPRPRPCFDPRP | -0.0482

Row | Sequence | shrunken log2 fold change
126 | RRIRNRPPRLPRPRPRPCKRPRP | -0.0122
127 | RRIRNRPPRLPRPRPRPCLGPRP | -0.219
128 | RRIRNRPPRLPRPRPRPCLIPRP | -0.018
129 | RRIRNRPPRLPRPRPRPCLRPRP | -0.0159
130 | RRIRNRPPRLPRPRPRPCMTPRP | 0.0616
131 | RRIRNRPPRLPRPRPRPCNAPRP | -0.0514
132 | RRIRNRPPRLPRPRPRPCQMPRP | -0.0139
133 | RRIRNRPPRLPRPRPRPCQNPRP | -0.835
134 | RRIRNRPPRLPRPRPRPCRSPRP | -0.0607
135 | RRIRNRPPRLPRPRPRPCTCPRP | -0.0075
136 | RRIRNRPPRLPRPRPRPCTFPRP | -0.0494
137 | RRIRNRPPRLPRPRPRPCVFPRP | -0.162
138 | RRIRNRPPRLPRPRPRPCVSPRP | 0.0348
139 | RRIRNRPPRLPRPRPRPCWSPRP | 0.0596
140 | RRIRNRPPRLPRPRPRPDAKPRP | 0.162
141 | RRIRNRPPRLPRPRPRPDASPRP | 0.14
142 | RRIRNRPPRLPRPRPRPDDHPRP | -0.0202
143 | RRIRNRPPRLPRPRPRPDDSPRP | -0.263
144 | RRIRNRPPRLPRPRPRPDFGPRP | -0.0978
145 | RRIRNRPPRLPRPRPRPDFHPRP | -0.441
146 | RRIRNRPPRLPRPRPRPDGSPRP | 0.0143
147 | RRIRNRPPRLPRPRPRPDIMPRP | -0.039
148 | RRIRNRPPRLPRPRPRPDKVPRP | -0.00145
149 | RRIRNRPPRLPRPRPRPDLEPRP | 0.124
150 | RRIRNRPPRLPRPRPRPDLPPRP | -0.221
